Data from US20030064921A1, “Methods and compounds for modulating melanocortin receptor ligand binding and activity” (The Regents of the University of California, priority 1999, published 2003).
Where no end group is shown, it is not given here.

Columns and labels:
MC5R = MC5R (Homo sapiens, UniProt P33032); test: Displacement of NDP-MSH at melanocortin receptor (binding)
Description: (§1) Suitable binding assays are well known to those of skill in the art. In a preferred embodiment, the binding assay is a competitive assay that measures the ability of the test composition to displace/compete a reference ligand from a melanocortin receptor. In one preferred approach specific binding of ligands of this invention to cells expressing the MC-3 receptor is determined by competition experiments using labeled (e.g. ^125I-labeled) Nle^4-D-Phe^7-α-MSH (NDP-MSH), as described in Tatro et al. (1990) Cancer Res. 50: 1237-1242).
(§2) The mini-AGRP binding was tested by examining its ability to displace NDP-MSH, a well established high affinity MCR agonist. […] Antagonist activity was then determined using a cAMP assay.

MC IR = MC IR (Homo sapiens, UniProt Q01726); test: as above
Description: as §1, §2

MC3R [1] = target: T1, MC3R (Homo sapiens, UniProt P41968); test: as above
Description: as §1, §2

MC4R [2] = target: T2, MC4R (Homo sapiens, UniProt P32245); test: as above
Description: as §1, §2

MC3R [3] = target: T1, MC3R; test: cAMP assay, suppression of α-MSH stimulated cAMP production; format: cell-based
Excerpt: (§3) Preferred assays measure, directly, or indirectly, melanocortin receptor induced changes in intracellular cAMP concentrations. One such assay measures the ability of cAMP to displace (8-^3H) cAMP from a high affinity cAMP binding protein (see Gilman (1979) Proc. Natl. Acad. Sci., USA, 67: 305-312). Briefly, test cells are exposed to the ligands to be screened. Following treatment, the cells are washed twice with phosphate buffered saline and intracellular cAMP extracted by lysing the cells with 1 mL of 60% ethanol. The assay is then run as described by Gilman, supra.).
as §2

MC4R [4] = target: T2, MC4R; test: as above; format: cell-based
Excerpt: as §3, §2

human MC4r = target: T3, human MC4r (Homo sapiens, UniProt P32245); test: Inhibition of NDP-MSH stimulated cAMP generation in HEK-293 cells transfected with human MC4r; format: cell-based; settings: 5.0×10^−6 M
T3 construct: expressed in transfected cells; host or cells: HEK-293
Description: Control experiments were performed with no MARP. […] Additional samples for HX experiments were prepared by lyophilization of protonated samples followed by reconstitution in 700 μl D2O.
This experiment measured inhibition of NDP-MSH stimulated cAMP generation in cells transfected with MC4r. A control experiment was conducted with no MARP present.

[5] = target: T4, human melanocortin receptor 4 (human, UniProt P32245 1-332); test: displacement of NDP-MSH from the receptor
T4 construct: whole, on cells; also called MC4r; MC4R

MC3R [6] = target: T1, MC3R; settings: versus agouti; cited from earlier work
MC4R [7] = target: T2, MC4R; settings: versus agouti; cited from earlier work

T2 sequence (P32245 whole entry): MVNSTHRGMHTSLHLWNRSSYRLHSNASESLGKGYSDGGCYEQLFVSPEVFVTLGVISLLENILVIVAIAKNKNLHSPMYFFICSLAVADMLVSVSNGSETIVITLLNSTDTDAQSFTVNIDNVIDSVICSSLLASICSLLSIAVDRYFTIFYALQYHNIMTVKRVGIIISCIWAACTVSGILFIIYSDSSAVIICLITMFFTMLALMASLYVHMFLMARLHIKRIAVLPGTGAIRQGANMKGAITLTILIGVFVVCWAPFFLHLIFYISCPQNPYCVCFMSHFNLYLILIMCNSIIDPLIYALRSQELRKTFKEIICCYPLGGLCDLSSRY
T1 sequence (P41968 whole entry): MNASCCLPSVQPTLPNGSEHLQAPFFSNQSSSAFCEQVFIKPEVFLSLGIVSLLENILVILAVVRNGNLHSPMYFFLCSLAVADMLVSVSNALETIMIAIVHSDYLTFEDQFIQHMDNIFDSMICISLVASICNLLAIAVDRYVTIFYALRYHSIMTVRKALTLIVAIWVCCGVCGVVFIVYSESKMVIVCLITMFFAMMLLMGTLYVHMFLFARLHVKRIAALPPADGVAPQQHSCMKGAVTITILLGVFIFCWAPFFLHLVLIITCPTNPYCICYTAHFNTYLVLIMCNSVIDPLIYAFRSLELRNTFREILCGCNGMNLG
Sequence of MC5R (P33032 whole entry): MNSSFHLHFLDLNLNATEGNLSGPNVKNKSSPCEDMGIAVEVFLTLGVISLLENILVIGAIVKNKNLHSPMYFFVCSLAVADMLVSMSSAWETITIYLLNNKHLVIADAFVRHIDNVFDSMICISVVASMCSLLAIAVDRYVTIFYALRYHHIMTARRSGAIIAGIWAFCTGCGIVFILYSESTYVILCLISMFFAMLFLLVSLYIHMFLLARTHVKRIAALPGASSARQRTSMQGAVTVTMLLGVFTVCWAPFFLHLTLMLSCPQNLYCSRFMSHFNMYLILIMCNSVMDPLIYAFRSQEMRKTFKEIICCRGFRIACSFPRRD
T3 sequence (P32245 whole entry): as the sequence (P32245 whole entry) above
T4 sequence (P32245 whole entry): as above
Sequence of MC IR (Q01726 whole entry): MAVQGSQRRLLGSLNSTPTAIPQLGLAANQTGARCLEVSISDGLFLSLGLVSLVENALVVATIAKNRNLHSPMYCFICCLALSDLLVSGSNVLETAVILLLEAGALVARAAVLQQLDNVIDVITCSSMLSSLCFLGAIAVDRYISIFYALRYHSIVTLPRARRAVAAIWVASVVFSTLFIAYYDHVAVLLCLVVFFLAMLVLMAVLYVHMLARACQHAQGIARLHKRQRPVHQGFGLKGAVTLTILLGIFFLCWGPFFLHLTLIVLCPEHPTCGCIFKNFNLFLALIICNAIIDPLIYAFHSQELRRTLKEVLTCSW

Ac-CVRLHESCLGQQVPCCDPAATCYCRFFNAFCYCR-NH2 (disulfide (positions not given here); not fully specified (bridges); printed as Ac-CVRLHESCLGQQVPCCDPAATCYCRFFNAFCYCR-NH2) [mini-AGRP]
displacement of NDP-MSH, potency compared with AGRP(87-132) (MC5R): potency equivalent to that of AGRP(87-132)
displacement of NDP-MSH, potency compared with AGRP(87-132) (MC IR): potency equivalent to that of AGRP(87-132)
displacement of NDP-MSH, potency compared with AGRP(87-132) (MC3R [1]): potency equivalent to that of AGRP(87-132)
displacement of NDP-MSH, potency compared with AGRP(87-132) (MC4R [2]): potency equivalent to that of AGRP(87-132)
antagonist activity: suppression of α-MSH stimulated cAMP production (MC3R [3]): potent activity
antagonist activity: suppression of α-MSH stimulated cAMP production (MC4R [4]): potent activity

MARP with Arg-25 to Ala substitution: MARP single mutant with Arg-25 replaced by Ala in the active loop, chemically synthesized (Ac-CVRLHESCLGQQVPCCDPCATCYCAFFNAFCYCRKLGTAMNPCSRT; disulfide (positions not given here))
inhibition of NDP-MSH stimulated cAMP generation (human MC4r): complete loss of inhibitory activity

B1: mini-AGRP Ac-CVRLHESCLGQQVPCCDPAATCYCRFFNAFCYCR-NH2 (peptide)
peptide: Ac-CVRLHESCLGQQVPCCDPAATCYCRFFNAFCYCR-NH2
modifications: disulfide (positions not given here); not fully specified (bridges); printed as Ac-CVRLHESCLGQQVPCCDPAATCYCRFFNAFCYCR-NH2; also: four disulfide bonds, pairing not given here
notes: Fmoc solid-phase synthesis, folded under oxidizing conditions
binding result [5]: binds

B2: AGRP: human AGRP is a 132 residue polypeptide (SEQ ID NO:1), natural antagonist of melanocortin receptors 3 and 4 (protein, listed as Homo sapiens)
chain: MLTAAVLSCALLLALPATRGAQMGLAPMEGIRRPDQALLPELPGLGLRAPLKKTTAEQAEEDLLQEAQALAEVLDLQDREPRSSRRCVRLHESCLGQQVPCCDPCATCYCRFFNAFCYCRKLGTAMNPCSRT
binding affinity greater than agouti (MC3R [6]): approximately 100 fold
binding affinity greater than agouti (MC4R [7]): approximately 100 fold
